Measurements from patent publication US20240117035A1.

Assays:
[1] = molecular target: human CLDN18.2 on cells (human) (UniProt P56856); test: flow cytometry on hCLDN18.2-expressing HEK293 cells
[2] = molecular target: human CLDN18.2 on cells (human) (UniProt P56856); test: flow cytometry on SNU601 cells

B1: m-anti-human CLDN18.2-13 monoclonal antibody (antibody, mouse IgG2a, kappa, V domains shown)
VH: QLQLQQSGTELVRPGSSVKISCKASGYAFSNYWMNWVKQRPGQGLEWIGQIYPGNGDTKYNGNFKGKATLTADKSSSTAYMQLSSLTSEDSADYFCARYYRGNCFDYWGQGTTLTVSS
VL: DIVLTQSPSSLTVTAGEKVTMSCKSSQSLLNSGNQKNYLTWYQQKPGQPPKLLIYWASTRDSGVPARFTGSGSGTDFTLTINSVQAEDLAVYYCQNAYTYPLTFGAGTKLEIKR
[1]
  IC50: 0.701 µg/mL
[2]
  IC50: 0.811 µg/mL
